Positions count from the first letter of the chain named. Numbers in names are those of the source.

The subject of data set [1] is Cathepsin G. To be noted: background statement; cited from earlier work.
The target of data set [2] is T1, Thrombin (Homo sapiens, UniProt P00734). In words: thrombin inhibition activity assay (D.4), specific activity. To be noted: for ACTIVITY, AFTER PEG MODIFICATION: after cysteine-PEGylation with Maleimido-PEG; for REL TO WT, BEFORE PEG MODIFICATION: activity relative to wild type PN-1; for REL TO ACTIVITY BEFORE PEG, AFTER PEG MODIFICATION: cysteine-PEGylated protein relative to same protein before PEGylation; for REL TO WT, AFTER PEG MODIFICATION: cysteine-PEGylated protein relative to wild type PN-1. The data set is classed as biochemical. The protocol:
Refolded or soluble protein was tested for capacity to inhibit thrombin in a standard assay. Briefly, serial 2-fold dilutions of PN-1 variant were added to microtiter plate wells (50 μl/well), followed by 50 μl of a 30 μg/ml heparin solution, followed by 1 NIH unit of thrombin in 50 μl. These were allowed to incubate at 25° C. for 15 minutes. Residual thrombin activity was measured by the addition of 50 μl S-2238 (Kabi Pharmaceuticals) at 0.625 mg/ml. PN-1 variants were tested for their ability to inhibit urokinase using the substrate S-2444, plasmin using the substrate S-2390, tPA using the substrate S2288, Factor Xa using the substrate S-2222 or S-2765, kallikrein using the substrate S-2302, human neutrophil elastase using s-AAPV-pna (Sigma), cathepsin G using s-AAPF-pna (Sigma) in a similar manner, with or without the addition of heparin.
Each of the PN-1 site-directed mutant proteins, as well as wild type PN-1, were modified by cysteine-PEGylation using the protocol described in F.2. The activity of wild type PN-1, each of the PN-1 site-directed mutants, and the cysteine-PEGylated wild type and mutant proteins was determined using the assay described in D.4.

For data set [3], the system named is E. coli. In words: bactericidal effect of PN-1 added to E. coli. Type of data set: cell-based. The note with it: native PN-1 added to E. coli. On the procedure: Alternatively, PN-1 can be generated in a soluble form within E. coli by adjusting the fermentation conditions. This procedure provides a greater yield of soluble PN-1 as the fermentation temperature is decreased from 37° C. to 26° C. with a concomitant loss in inclusion body material. This is quite an unexpected finding, since PN-1 is bactericidal when native PN-1 is added to E. coli. To purify soluble PN-1, the cell supernatant from the disruption step was clarified by centrifugation and filtration or by treatment with polycations such as polyethyleneimine or Biacryl™ followed by centrifugation and filtration, and the soluble protein was purified as above. The generation of soluble material has many advantages: there is more certainty that the protein is correctly folded, there are no refolding steps, there is greater reproducibility from batch to batch.

For data set [4], the system named is human neutrophil elastase. To be noted: background statement; cited from earlier work.
The subject of data set [5] is human neutrophil elastase. In words: second-order association rate constant vs elastase. Type of data set: biochemical. The protocol: Refolded or soluble protein was tested for capacity to inhibit thrombin in a standard assay. Briefly, serial 2-fold dilutions of PN-1 variant were added to microtiter plate wells (50 μl/well), followed by 50 μl of a 30 μg/ml heparin solution, followed by 1 NIH unit of thrombin in 50 μl. These were allowed to incubate at 25° C. for 15 minutes. Residual thrombin activity was measured by the addition of 50 μl S-2238 (Kabi Pharmaceuticals) at 0.625 mg/ml. […]
The second-order rate association constants were determined for appropriate inhibitors-proteases combinations by combining equal-molar amounts of each protein (determined by titration as above) for various times from 1 second to 4 hours (as appropriate) and following the activity loss. […] Alternatively, the apparent first order rate constant was determined from the slope of a plot of log (normalized activity) vs time. The second order rate constant was calculated by dividing the apparent first order rate constant by the PN-1 (or variant) concentration used.

Data set [6] concerns the target T1, Thrombin. The note with it: background statement; cited from earlier work.
Data set [7] can be described thus: serum half-life after tail vein injection, sandwich ELISA. To be noted: rat. From the text:
The PN-1 variant N99C;N140C was PEGylated by reaction with the Maleimido-PEG reagent as described above in section G.2. Small scale reactions were first performed to determine the excess of Maleimido-PEG reagent required to drive the reaction to completion, i.e., to PEGylate both the N99C and N140C sites of the protein. The final PEGylation reaction contained about a 3-fold excess of Maleimido-PEG over the amount of N99C;N140C protein in the reaction mixture. Cysteine-PEGylated protein was purified by ion exchange chromatography as described in Section D3 above with an additional final Mono-S ion exchange step. The bis-modified,cysteine-PEGylated N99C;140C protein and unmodified N99C;N140C protein were resuspended in 50 mM PIPES pH 6.7, 150 mM NaCl, 10% glycerol.
The serum half-life of the PEGylated N99C;N140C variant was compared to the half-life of the unmodified N99C;N140C variant by injecting a 0.3 ml of a 3 mg/ml solution containing either the cysteine-PEGylated N99C;N140C or unmodified N99C;N140C into the tail vein of 200 g rats. At 2 min, 10 min, 30 min, 60 min, and 120 min after injection, a 0.5 ml blood sample was collected onto EDTA anticoagulant. The blood samples were centrifuged to separate plasma from blood cells, and the concentration of cysteine-PEGylated N99C;N140C or unmodified N99C;N140C determined by sandwich ELISA as described by Evans et al. (1991) J. Biol. Chem. 266:22307-22312, using a rabbit polyclonal antibody.

B1: PN-1 (protein, UniProt P07093 20-398, looked up)
Glia-derived nexin: SHFNPLSLEELGSNTGIQVFNQIVKSRPHDNIVISPHGIASVLGMLQLGADGRTKKQLAMVMRYGVNGVGKILKKINKAIVSKKNKDIVTVANAVFVKNASEIEVPFVTRNKDVFQCEVRNVNFEDPASACDSINAWVKNETRDMIDNLLSPDLIDGVLTRLVLVNAVYFKGLWKSRFQPENTKKRTFVAADGKSYQVPMLAQLSVFRCGSTSAPNDLWYNFIELPYHGESISMLIALPTESSTPLSAIIPHISTKTIDSWMSIMVPKRVQVILPKFTAVAQTDLKEPLKVLGITDMFDSSKANFAKITTGSENLHVSHILQKAKIEVSEDGTKASAATTAILIARSSPPWFIVDRPFLFFIRHNPTGAVLFMGQINKP
B1: the “inhibition of cathepsin G” value in data set [1] is “does not inhibit”. In data set [2], the “ACTIVITY, AFTER PEG MODIFICATION” value was 0.017 NIH units of thrombin inhibited per μg PN1 (variant); the “SPECIFIC ACTIVITY, BEFORE PEG MODIFICATION” value is listed as 0.50 NIH units of thrombin inhibited per μg PN1 (variant); the “REL TO WT, BEFORE PEG MODIFICATION” value turned out to be 1; the “REL TO ACTIVITY BEFORE PEG, AFTER PEG MODIFICATION” value (“REL TO ACTIVITY BEFORE PEG” below) turned out to be 0.03. Moreover, the “effect on E. coli” value in data set [3] is given as “bactericidal”. Further, the inhibition of elastase result in data set [4] is “does not inhibit”. For the same molecule, the “inhibitory activity against elastase” value in data set [5] is on record as “no inhibitory activity against elastase”. Also, the “acceleration of thrombin inhibition in the presence of heparin” value in data set [6] is 50-100 fold.

B2: C117S;C131S;C209S (protein, UniProt P07093 20-398, looked up, variant C117S C131S C209S)
Glia-derived nexin: B1 Glia-derived nexin with C117S, C131S, C209S
On to B2, for which, in data set [2], the “ACTIVITY, AFTER PEG MODIFICATION” value is 0.50 NIH units of thrombin inhibited per μg PN1 (variant) and the “SPECIFIC ACTIVITY, BEFORE PEG MODIFICATION” value was 0.050 NIH units of thrombin inhibited per μg PN1 (variant).

B3: N304C (conjugate, UniProt P07093 20-398, looked up, variant N304C)
Glia-derived nexin: B1 Glia-derived nexin with N304C
modifications: PEG
With B3, in data set [2], the “ACTIVITY, AFTER PEG MODIFICATION” value was 0.17 NIH units of thrombin inhibited per μg PN1 (variant); the “SPECIFIC ACTIVITY, BEFORE PEG MODIFICATION” value is reported as 0.056 NIH units of thrombin inhibited per μg PN1 (variant); the “REL TO WT, BEFORE PEG MODIFICATION” value is given as 0.11; the “REL TO ACTIVITY BEFORE PEG” value is recorded as 3. In addition, the “REL TO WT, AFTER PEG MODIFICATION” value in data set [2] worked out at 0.33.

B4: N99C;N140C (protein, UniProt P07093 20-398, looked up, variant N99C N140C)
Glia-derived nexin: B1 Glia-derived nexin with N99C, N140C
For the molecule B4, the “t1/2 (serum half-life)” value in data set [7] (tail vein injection) fell in the range of 10 to 12 min. Moreover, the “total administered amount present in the blood stream” value in data set [7] (tail vein injection, 60 min time point) was “less than 3%”. Further, in data set [2], the “ACTIVITY, AFTER PEG MODIFICATION” value was 0.40 NIH units of thrombin inhibited per μg PN1 (variant); the “SPECIFIC ACTIVITY, BEFORE PEG MODIFICATION” value was 0.20 NIH units of thrombin inhibited per μg PN1 (variant); the “REL TO WT, BEFORE PEG MODIFICATION” value is reported as 0.40; the “REL TO ACTIVITY BEFORE PEG” value is given as 2. The “REL TO WT, AFTER PEG MODIFICATION” value in data set [2] was 0.80.

B5: cysteine-PEGylated N99C;N140C: N99C;N140C PN-1 variant PEGylated at cysteines by reaction with Maleimido-PEG (PEG MW about 5,000) (conjugate, UniProt P07093 20-398, looked up, variant N99C N140C)
Glia-derived nexin: B1 Glia-derived nexin with N99C, N140C
modifications: cysteine-linked maleimido-PEG 5 kDa
In the case of B5, the “enhancement of t1/2 by cysteine-PEGylation” value in data set [7] (in vivo) was “about 6 fold”. Further, in data set [7] (in vivo, 60 min), the “total administered amount present in the blood stream” value is listed as 55-60%. The “t1/2 (serum half-life)” value in data set [7] (in vivo, iv) lay within 60 to 80 min. For the same molecule, the “change of specific activity with increasing PEGylation reagent in reaction mixture (FIG. 4)” value in data set [2] (increasing ratio of PEG reagent to protein) was “increased with an increasing amount of the Maleimido-PEG reagent”. Also, the “activity retained relative to unmodified PN-1” value in data set [2] (reacted at a ratio of 3:1 Maleimido-PEG to protein) is reported as “at least 100%”.

The values are drawn from US5766897A, “Cysteine-pegylated proteins” (Incyte Pharmaceuticals, Inc., priority 1995, dated 1998).
